Experiment [1] addresses T1, trimeric murine IL-2 receptor (IL-2Rα, IL-2Rβ, and IL-2Rγ) on CTLL-2 cells (murine, UniProt P01590 22-268; P16297 27-539; P34902 23-369).
T1 sequence (looked up) 1: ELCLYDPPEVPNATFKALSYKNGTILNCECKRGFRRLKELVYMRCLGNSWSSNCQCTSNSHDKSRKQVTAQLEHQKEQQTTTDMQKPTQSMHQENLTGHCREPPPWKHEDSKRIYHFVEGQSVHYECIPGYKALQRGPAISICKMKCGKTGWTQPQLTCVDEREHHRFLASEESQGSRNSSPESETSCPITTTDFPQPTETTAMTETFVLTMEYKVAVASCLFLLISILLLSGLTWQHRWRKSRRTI
T1 sequence (looked up) 2: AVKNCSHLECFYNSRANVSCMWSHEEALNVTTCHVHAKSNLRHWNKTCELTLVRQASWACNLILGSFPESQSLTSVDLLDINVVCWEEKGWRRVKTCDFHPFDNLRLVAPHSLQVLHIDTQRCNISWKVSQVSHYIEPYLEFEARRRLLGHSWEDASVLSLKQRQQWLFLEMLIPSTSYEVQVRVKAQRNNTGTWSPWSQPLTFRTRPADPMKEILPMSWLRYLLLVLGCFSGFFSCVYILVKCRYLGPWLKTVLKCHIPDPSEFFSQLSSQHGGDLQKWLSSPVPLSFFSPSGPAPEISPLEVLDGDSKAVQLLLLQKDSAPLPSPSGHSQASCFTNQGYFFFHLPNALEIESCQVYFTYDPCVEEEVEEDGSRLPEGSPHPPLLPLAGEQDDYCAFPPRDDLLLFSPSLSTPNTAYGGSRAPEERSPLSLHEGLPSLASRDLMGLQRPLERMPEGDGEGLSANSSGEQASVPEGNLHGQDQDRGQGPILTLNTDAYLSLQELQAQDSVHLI
T1 sequence (looked up) 3: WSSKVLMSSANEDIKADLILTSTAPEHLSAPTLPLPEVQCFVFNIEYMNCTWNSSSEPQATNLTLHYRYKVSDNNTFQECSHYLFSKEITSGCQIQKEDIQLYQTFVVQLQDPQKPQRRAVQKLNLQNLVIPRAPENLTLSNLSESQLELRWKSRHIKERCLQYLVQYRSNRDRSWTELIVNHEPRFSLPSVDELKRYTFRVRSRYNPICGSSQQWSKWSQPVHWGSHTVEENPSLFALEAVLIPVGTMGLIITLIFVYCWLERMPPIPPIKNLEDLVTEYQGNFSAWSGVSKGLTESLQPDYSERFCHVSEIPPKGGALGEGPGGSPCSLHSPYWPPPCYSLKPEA
Briefly: cell-based or functional assay.

For experiment [2], the target named is T2, human IL-2Rα on Treg cells (CD3+, CD4+, CD25hi, FoxP3+) of human PBMC (human, UniProt P01589 22-272).
T2 sequence (looked up): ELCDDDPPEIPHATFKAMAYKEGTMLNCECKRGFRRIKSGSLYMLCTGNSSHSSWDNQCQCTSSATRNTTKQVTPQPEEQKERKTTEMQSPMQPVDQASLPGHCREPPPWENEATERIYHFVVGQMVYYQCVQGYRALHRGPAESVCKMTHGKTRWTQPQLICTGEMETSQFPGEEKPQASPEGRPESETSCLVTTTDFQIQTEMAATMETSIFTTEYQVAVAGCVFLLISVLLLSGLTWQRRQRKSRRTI
Kind of experiment: cell-based or functional assay.

Experiment [3] deals with T1, trimeric murine IL-2 receptor (IL-2Rα, …). Briefly: cell-based or functional assay. The source holds these as a separate data set.
Experiment [4] has as its target T3, IL-2Rβ (recombinant IL-2 receptor β, R&D Systems Cat #:224-2B-025/CF), biotinylated (UniProt P14784 27-239, limits assumed, biotinylated using sulfo-NHS-LC-LC-Biotin).
T3 construct: Bought reagent; also called IL-2RB; CD122
T3 sequence (looked up): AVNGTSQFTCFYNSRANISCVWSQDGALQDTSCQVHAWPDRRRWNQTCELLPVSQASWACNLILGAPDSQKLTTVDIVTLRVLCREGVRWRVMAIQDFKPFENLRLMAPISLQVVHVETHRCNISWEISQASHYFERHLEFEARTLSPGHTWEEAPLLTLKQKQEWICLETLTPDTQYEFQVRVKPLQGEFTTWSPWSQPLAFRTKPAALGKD
Kind of experiment: SPR (Biacore), C1 or CM5 chip, biotinylated receptor on neutravidin. An excerpt: (§1) Data for binding of Fc-IL-2 variant fusion proteins to IL-2Rα, IL-2Rβ and IL-2Rβγ heterodimer were collected on a Biacore platform using either C1 or CM5 chips. Neutravidin was immobilized using standard amine coupling methods and used to capture biotinylated receptors. Commercially sourced IL-2Rα (R&D Systems Cat #: 223-2A/CF) and IL-2Rβ receptors (R&D Systems Cat #:224-2B-025/CF) were biotinylated using sulfo-NHS-LC-LC-Biotin, desalted, and then captured on the neutravidin surfaces. […] Distinct purification tags were appended to the C-terminus of each chain. A FLAG epitope tag ([…]; SEQ ID NO: 257) was added at the C-terminus of IL-2Rβ subunit, followed by C-terminal Hiss tag ([…]; SEQ ID NO: 258). An AviTag™ ([…]; SEQ ID NO: 259) motif on the IL-2Rγ subunit allowed for site-specific biotinylation of the heterodimer.
(§2) Fc IL 2 fusion protein variants, Fc protein, and Proleukin were injected at various concentrations over these surfaces. Kinetic data obtained from these injections was used to extract kₒₙ and koff to calculate KD (KD=koff/kₒₙ). Experiments were run at 25° C. in HBS-EP+ running buffer (10 mM HEPES, 150 mM NaCl, 3 mM EDTA, 0.05% Tween20, pH 7.4 with 0.1 mg/ml BSA). Data shown in Table 5 for Fc IL-2 fusion protein variants binding to the indicated IL-2R surfaces were derived from the global fitting of data obtained from 2-5 independent surfaces.

The target of experiment [5] is T4, IL-2Rα (recombinant IL-2 receptor α, R&D Systems Cat #: 223-2A/CF), biotinylated (human, UniProt P01589 22-213, limits assumed, biotinylated using sulfo-NHS-LC-LC-Biotin).
T4 construct: Bought reagent; also used here as the IL-2Rα partner of the in-silico analysis of PDB 2B5I (another construct); also called IL-2RA; CD25
T4 sequence (looked up): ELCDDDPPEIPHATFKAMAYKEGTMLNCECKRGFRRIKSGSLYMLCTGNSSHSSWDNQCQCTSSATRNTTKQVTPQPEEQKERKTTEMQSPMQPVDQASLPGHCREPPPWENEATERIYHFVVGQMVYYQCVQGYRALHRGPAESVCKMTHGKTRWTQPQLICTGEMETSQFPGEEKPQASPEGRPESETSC
The description is as above.
Source text: as §1, §2

Experiment [6] concerns the target T5, IL-2Rβγ heterodimer, custom biotinylated Fc fusion protein (human IL-2Rβ 27-240-Fc-FLAG / human IL-2Rγ … (human, site-specific biotinylation at the AviTag)).
T5 construct: Extracellular regions fused to IgG1 knob-in-hole Fc subunits with tags; also called IL-2 receptor βγ heterodimer; Fc-IL-2Rβγ
The description is as above.
Source text: as §1, §2

Where a chain is given by its changes, count along the chain named.

T5 sequence (chain, as listed by the source limits assumed): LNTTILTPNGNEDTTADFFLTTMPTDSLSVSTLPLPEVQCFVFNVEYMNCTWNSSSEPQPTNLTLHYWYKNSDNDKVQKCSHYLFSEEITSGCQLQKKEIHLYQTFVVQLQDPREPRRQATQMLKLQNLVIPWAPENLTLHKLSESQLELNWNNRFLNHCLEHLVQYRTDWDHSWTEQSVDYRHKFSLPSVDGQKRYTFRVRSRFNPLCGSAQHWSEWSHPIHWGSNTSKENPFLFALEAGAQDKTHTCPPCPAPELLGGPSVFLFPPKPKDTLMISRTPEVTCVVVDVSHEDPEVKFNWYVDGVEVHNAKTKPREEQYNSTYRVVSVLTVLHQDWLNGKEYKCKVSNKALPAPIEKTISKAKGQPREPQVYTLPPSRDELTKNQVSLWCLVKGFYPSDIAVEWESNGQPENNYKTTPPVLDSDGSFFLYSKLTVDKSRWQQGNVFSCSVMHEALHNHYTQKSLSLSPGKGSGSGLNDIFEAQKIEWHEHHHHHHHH

B1: mouse surrogate Fc-IL-2v heterodimer 169.250 (IL2v_F56A_Y59G_E76A_C140A) (Fc fusion)
chain 1: GPTIKPCPPCKCPAPNAAGGPSVFIFPPKIKDVLMISLSPIVTCVVVDVSEDDPDVQISWFVNNVEVHTAQTQTHREDYNSTLRVVSALPIQHQDWMSGKEFKCKVNNKDLGAPIERTISKPKGSVRAPQVYVLPPPEEEMTKKQVTLWCMVTDFMPEDIYVEWTNNGKTELNYKNTEPVLDSDGSYFMYSKLRVEKKNWVERNSYSCSVVHEGLHNHHTTKSFSRTPGGGGGSGGGGSGGGGSGGGGSQQQHLEQLLMDLQELLSRMENYRNLKLPRMLTAKFGLPKQATELKDLQCLEDALGPLRHVLDLTQSKSFQLEDAENFISNIRVTVVKLKGSDNTFECQFDDESATVVDFLRRWIAFAQSIISTSPQ
chain 2: GPTIKPCPPCKCPAPNAAGGPSVFIFPPKIKDVLMISLSPIVTCVVVDVSEDDPDVQISWFVNNVEVHTAQTQTHREDYNSTLRVVSALPIQHQDWMSGKEFKCKVNNKDLGAPIERTISKPKGSVRAPQVYVLPPPEEEMTKKQVTLSCAVTDFMPEDIYVEWTNNGKTELNYKNTEPVLDSDGSYFMVSKLRVEKKNWVERNSYSCSVVHEGLHNHHTTKSFSRTPGK
In the case of B1, the “pSTAT5 EC50, STAT5 activation of CTLL-2 cells” value in experiment [1] turned out to be 51.4 nM.

B2: mouse surrogate Fc-IL-2v heterodimer 170.250 (IL2v_R52G_E76A_C140A) (Fc fusion)
chain 1: B1 chain 1 with R278G, A282F, G285Y
chain 2: B1 chain 2
As for B2, in experiment [1], the “pSTAT5 EC50, STAT5 activation of CTLL-2 cells” value is 9.6 nM.

B3: Fc-IL-2v heterodimer 81.46 (hIL-2v_Δ1-5_R38G_C125S) (Fc fusion)
chain 1: ESKYGPPCPPCPAPEAAGGPSVFLFPPKPKDTLMISRTPEVTCVVVDVSQEDPEVQFNWYVDGVEVHNAKTKPREEQFNSTYRVVSVLTVLHQDWLNGKEYKCKVSNKGLPSSIEKTISKAKGQPREPQVYTLPPSQEEMTKNQVSLWCLVKGFYPSDIAVEWESNGQPENNYKTTPPVLDSDGSFFLYSRLTVDKSRWQEGNVFSCSVMHEALHNHYTQKSLSLSLGGGGGSGGGGSGGGGSGGGGSSTKKTQLQLEHLLLDLQMILNGINNYKNPKLTGMLTFKFYMPKKATELKHLQCLEEELKPLEEVLNLAQSKNFHLRPRDLISNINVIVLELKGSETTFMCEYADETATIVEFLNRWITFSQSIISTLT
chain 2: ESKYGPPCPPCPAPEAAGGPSVFLFPPKPKDTLMISRTPEVTCVVVDVSQEDPEVQFNWYVDGVEVHNAKTKPREEQFNSTYRVVSVLTVLHQDWLNGKEYKCKVSNKGLPSSIEKTISKAKGQPREPQVYTLPPSQEEMTKNQVSLSCAVKGFYPSDIAVEWESNGQPENNYKTTPPVLDSDGSFFLVSRLTVDKSRWQEGNVFSCSVMHEALHNRFTQKSLSLSLGK
notes: hIgG4 knob-in-hole Fc heterodimer, one IL-2v on the knob chain
For B3, in experiment [2], the “Treg EC50, STAT5 activation (PBMC STAT5 assay)” value (“Treg EC50, STAT5 activation” for short) is 0.07 nM. Besides, the “STAT5 activation of CTLL-2 cells, EC50” value in experiment [3] stood at 0.02 nM. In addition, the results for the Kd in experiment [4], in experiment [5] and in experiment [6] were 7000 nM, 685 nM and 0.071 nM, respectively. For the same molecule, the “fold larger effect on reducing IL-2Rα affinity against R38A (heterodimer 82.46)” value in experiment [5] was found to be 6 fold.

B4: Fc heterodimer without a fused IL-2 moiety (heterodimer name: 260:261) (other)
chain 1: B3 chain 2 with S148W, A150L, V189Y, R217H, F218Y
chain 2: B3 chain 2
notes: negative control; also called control Fc protein with no IL-2 fusion
In the case of B4, the binding result in experiment [4], in experiment [5] and in experiment [6] was “no binding” in each case.

B5: Fc-IL-2v heterodimer 90.46 (hIL-2v_Δ1-5_E62A_C125S) (Fc fusion)
chain 1: B3 chain 1 with G281R, E305A
chain 2: B3 chain 2
notes: as for B3
For B5, in experiment [2], the “Treg EC50, STAT5 activation” value was found to be 0.08 nM. Further, in experiment [3], the “STAT5 activation of CTLL-2 cells, EC50” value amounted to 2 nM. Besides, the Kd – broadly, the equilibrium constant for the complex coming apart – in experiment [4] is 8100 nM; in experiment [5] it was 2400 nM; in experiment [6] it was 0.152 nM.

B6: Fc-IL-2v heterodimer 87.46 (hIL-2v_Δ1-5_Y45G_C125S) (Fc fusion)
chain 1: B3 chain 1 with G281R, Y288G
chain 2: B3 chain 2
notes: as for B3
As for B6, in experiment [2], the “Treg EC50, STAT5 activation” value is 0.03 nM. For the same molecule, in experiment [3], the “STAT5 activation of CTLL-2 cells, EC50” value was 0.2 nM. Also, the Kd is 7000 nM in experiment [4], 269 nM in experiment [5] and 0.016 nM in experiment [6].

B7: Fc-IL-2v heterodimer 89.46 (hIL-2v_Δ1-5_E61A_C125S) (Fc fusion)
chain 1: B3 chain 1 with G281R, E304A
chain 2: B3 chain 2
notes: as for B3
On to B7, for which the “Treg EC50, STAT5 activation” value in experiment [2] was 0.04 nM. The “STAT5 activation of CTLL-2 cells, EC50” value in experiment [3] is 0.02 nM. In addition, the Kd in experiment [4] amounted to 8800 nM; in experiment [5] it was 419 nM; in experiment [6], 0.065 nM.

B8: Fc-IL-2v heterodimer 86.46 (hIL-2v_Δ1-5_F42A_C125S) (Fc fusion)
chain 1: B3 chain 1 with G281R, F285A
chain 2: B3 chain 2
notes: as for B3
For B8, the “Treg EC50, STAT5 activation” value in experiment [2] turned out to be 0.3 nM. For the same molecule, the “STAT5 activation of CTLL-2 cells, EC50” value in experiment [3] was 1 nM. For the same molecule, the Kd in experiment [4] was found to be 7100 nM; in experiment [5] it was 2000 nM; in experiment [6], 0.094 nM.

B9: Fc-IL-2v heterodimer 83.46 (hIL-2v_Δ1-5_T41G_C125S) (Fc fusion)
chain 1: B3 chain 1 with G281R, T284G
chain 2: B3 chain 2
notes: as for B3
B9: the “Treg EC50, STAT5 activation” value in experiment [2] was less than 0.001 nM. The “STAT5 activation of CTLL-2 cells, EC50” value in experiment [3] came to 0.04 nM. For the same molecule, the figures for the dissociation constant (Kd) in experiment [4], in experiment [5] and in experiment [6] were 7300 nM, 29 nM and 0.15 nM, respectively.

Source of the values: US20240269235A1 (Gilead, published 2024).
